How the values were obtained:
crystal structure = biological target: the molecule itself; test: crystal structure
cryo-EM structure = biological target: the molecule itself; test: cryo-EM structure

Row | Protein | stoichiometry N (crystal structure) | stoichiometry N (cryo-EM structure)
1 | Enterococcus pore-forming toxin 4 (Epx4), residues 32-335, C-terminal His6 (natural protein) SEDNIIGTTTQEIDEHGNVKTIITVKNQQIESYTSTDSGTAKNRSTLTVNANFLNDKYSNELTTILSLNGFIPSGRKFIFPKNNTLKGEMLWPQRYSTAVYNIPLDKSVKITNSTPDNTIRSKEVSNSITYGIGGGIKMEGKQPGANLDANAAITKTISYQQPDYETAKTTSTVTGVNWNTNFTETRDGYTRNSWNPVYGNQMFMYGRYTSNIRNNFTPDYQLSSLITSGFSPSYGLVLRAPKDVKKSRIKVVFARRSETYQQNWDGLNWWGRNFYDTKNPDSLSKVTLTFELDWQNHRVTFIELEHHHHHH | 8 | –
2 | Enterococcus pore-forming toxin 1 (Epx1), residues 24-345, C-terminal His6 (natural protein) DVQVFADNPVLGTEVTFEKDENGRIVKIISKNQYRITIYNSVDAGDTPNDASVSLDVDFIDDKNSGEMGAVASINTFIPSGLRYVEGYKYKGVTNPIYKNLSAGMLWPKKYRVEVVNIPIDQATKIITATPNNNIKEKQVSDTISYGFGGSVSADGKKPGGSIEANLAYTKTTTYDQPDYETSQIKKTTKEAVWDTSFVETRDGYTPNSWNPVYGNQMFMRGRYSNVSPIDNIKKGGEVSSLISGGFSPKMGVVLASPNGTKKSQFVVRVSRMSDMYIMRWSGTEWGGENEINQNVPKEYNALMYEDVKFEIDWEQRTVRTILEHHHHHH | – | 8

Reference: publication PMC8978092 (Cell, 2022)
